{"source": "the nanobody polyreactivity screen of Harvey et al. (2022)"}
{"assay": "yeast display, Sf9 membrane polyspecificity reagent, FACS + sequencing; frameworks hold sequencing errors", "method_in_brief": "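Using colony PCR, genes from sorted yeast display clones were amplified, then sequenced on MiSeq at 2 × 250 and filtered by CDR length. The clones had been stained with 10% biotinylated, detergent-solubilized Sf9 membrane reagent for 1 hour at 4 °C and sorted by FACS into low and high (top ~1%) gates on anti-HA and streptavidin fluorescence. Polyreactivity labels come from the gate of origin.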"}
{"sequence": "QVQLVESGGGLVQAGGSLRLRSAASGYTFSIYAMGRYRQATGKERELVASISWSAGNTYYADYVKGRFTFSLDNAKNTVYLQMNSLKPEDTAVYYCAVPRRLIWYRPSSYDYWGQGTQVTVSS", "polyreactivity (PSR sort gate)": "low polyreactivity"}
{"sequence": "QVQLVESGGGLVQAGGSLRLSCAAAGIIFILYTMGWYRKAPGKERELVATISSGGGSTFYADSVKGRFTISRDNAKNTVYLQMHRLKPEDTAVYYCAAFPVFGYSYDYWGQGTQVTVSS", "polyreactivity (PSR sort gate)": "low polyreactivity"}
{"sequence": "QVQLVESGGGLVQAGGSLRLSCAAAGLIFRFYAMGWYRQSPGKERELVAAISSRGGSRYYADSVKGRFTISRDNAKNTVYLQMNSLKPEDTAVYYCAAAVRKMAYPHYEYGYWGQGTQVTVSS", "polyreactivity (PSR sort gate)": "high polyreactivity"}
{"sequence": "QVQLVESGGGLVQAGGSLRLSCAAAGLTFEWYTMGWYRQAPGKERELVADISGDGSTYYADSVKGRFTISRDNAKNTVYLQMNSLKPEDTAVYYCAASFWGFAMGYWGQGTQVTVSS", "polyreactivity (PSR sort gate)": "high polyreactivity"}
{"sequence": "QVQLVESGGGLVQAGGSLRLSCAAAGRTFFKYAMGWYRQAPGKERELVATITSSGGITYADSVKGRFTISRDNAKNTVYLQMNRLKPEDTAVYYCNARVWVTHYSELNYWVQGTQVTVSS", "polyreactivity (PSR sort gate)": "low polyreactivity"}
{"sequence": "QVQLVESGGGLVQAGGSLRLSCAAAGSIFSYYAMGWSRPEPGKEREFVATIRRSGASTYYADSVKGRFTISRDNAKNTGYLQMNSLKPEDTAVYYCNAASARRPIYEAARGSKYDYWGQRTQVTVSS", "polyreactivity (PSR sort gate)": "low polyreactivity"}
{"sequence": "QVQLVESGGGLVQAGGSLRLSCAAAGSIFYYNAMGWYRQAPGKERELVASIRAHGGNTYYADSVKGRFTISRDNAKNTVYLQMNSLKPEDTAVYYCAKESRYAHLYYYWGLGTQVTVSS", "polyreactivity (PSR sort gate)": "low polyreactivity"}
{"sequence": "QVQLVESGGGLVQAGGSLRLSCAACGFTFTIYAMGWYRQAPGKERELVATISGRAGRTYYADSVKGRFTISRDNAKNTVYLQMNSLKPEDTAVYYCTAGQWRYPGLYYYWGQGTQVTVSS", "polyreactivity (PSR sort gate)": "high polyreactivity"}
{"sequence": "QVQLVESGGGLVQAGGSLRLSCAACGNTFTYYAMGLYRQAPGKERELVASISSGVSTNYADSVKGRFTISRDNAKNTLYLHINSLKPEDTAVYYCARGWSFSTRRFQHTRYYYWGQGTQVTVSS", "polyreactivity (PSR sort gate)": "high polyreactivity"}
{"sequence": "QVQLVESGGGLVQAGGSLRLSCAACGRIFTPNAMGWYRPAPGKERELVAAITWSGDNTYADSVKGRFTISRDNAKNTVYLQMNSLKPEDTAVYYCAAAYGYGHKNYGYWRQGTQVTVSS", "polyreactivity (PSR sort gate)": "low polyreactivity"}
{"sequence": "QVQLVESGGGLVQAGGSLRLSCAACGRIFVYYVMGWYRQAPGKERELVAAISNSGTSTYYADSLKGRFTISRDNAKNTVYLQMNSLKPEDTAVYYCNTVGQRWLSDDDYWGQGTQVTVSS", "polyreactivity (PSR sort gate)": "low polyreactivity"}
{"sequence": "QVQLVESGGGLVQAGGSLRLSCAACGRTFQSNAMGWYRQAPGKERELVARITRRGGITYYADSVKGRFTISRDNAKNTVYLQMNSLKPEDTAVYYCNRYLYDSYRWAALQRTGYNSWGQGTQVTVSS", "polyreactivity (PSR sort gate)": "high polyreactivity"}
{"sequence": "QVQLVESGGGLVQAGGSLRLSCAACGRTFRRNAMGWYREAPGKERELVAAISTSGGRTYYADSVKGRFTISRDNAKNTVYLQMNSLKPEDTAVYYCAADIPQTDGYWGQGTQVTVSS", "polyreactivity (PSR sort gate)": "low polyreactivity"}
{"sequence": "QVQLVESGGGLVQAGGSLRLSCAACGRTFVDYVMGSYRQAPGKERELVAAISRSGSTYYADSVKGRFTISRDNAKNTVYLQRNSLKPEDTAVYYCAASSVALPWYASWYVYGYEYCGQGTQVTVSS", "polyreactivity (PSR sort gate)": "low polyreactivity"}
{"sequence": "QVQLVESGGGLVQAGGSLRLSCAACGRTFVSYSMGWYRQAPGKERELVAAISRSGGRTYYADSVKGRFTISRDNAKNTVYLQMNSLKPEDTAVYYCATIQYGTLARYDYWGQGTQVTVSS", "polyreactivity (PSR sort gate)": "high polyreactivity"}
{"sequence": "QVQLVESGGGLVQAGGSLRLSCAACGRTFYFYTMGWYRQAPGKERELVAAITRSGVSTYYADSVKGRFTISRDNAKNTVYLQMNSLKPEDTAVYYCAVRTWGYTQYYYWGQGTQVTVSS", "polyreactivity (PSR sort gate)": "high polyreactivity"}
{"sequence": "QVQLVESGGGLVQAGGSLRLSCAACGRTLRTYGMGWYRQAPGKERELVATITRRGDSTYYADSVKGRFTISRDNAKNTVYLQMNSLKPEDTAVYYSNTASYGRHQFRKSSKMDYWGQGTQVTVSS", "polyreactivity (PSR sort gate)": "high polyreactivity"}
{"sequence": "QVQLVESGGGLVQAGGSLRLSCAACGSIFDRYVMGWYRQAPGKERELVAAISSSGGSTYYADSVKGRFTISRDNAKNTVYLQMNSLKPEDTAVYYCAAKFSYGRYNYWGQGTQVTVSS", "polyreactivity (PSR sort gate)": "high polyreactivity"}
{"sequence": "QVQLVESGGGLVQAGGSLRLSCAACGSIFEFNTMGWYRQAPGKERELVAAISSSGGRTYYADSVKGRFTISRDNAKNSVYLQMNSLKPEDTGVYYCNARRLVHNPDYDYWGQGTQVTVSS", "polyreactivity (PSR sort gate)": "high polyreactivity"}
{"sequence": "QVQLVESGGGLVQAGGSLRLSCAACGSIFNYYTMGWYRTAPGKERELVADISWSGGSTYYADSVKGRFTISRDNAKNTVYLQMNSLKPEETAVYYCAADFGLFPYVGTGYYYWGQGTQVTVSS", "polyreactivity (PSR sort gate)": "low polyreactivity"}
{"sequence": "QVQLVESGGGLVQAGGSLRLSCAACGSIFVRNTMGWDRQAPGKERELVASIDWSGGITSYADSVKGRFTISRDNAKNTVYLQMNIRKPEDTAVYFCNAVFLYPFNVPTMEYWGQGTQVTVSS", "polyreactivity (PSR sort gate)": "low polyreactivity"}
{"sequence": "QVQLVESGGGLVQAGGSLRLSCAACGSIFYGNAMGWDRQAPGKVRELVAAITQGATSTYYADSVKGRFTISRDNAKNTVDLQMNSLKPEDTAVYYCAAVLAWRYTYYYWGQGTQVTVSS", "polyreactivity (PSR sort gate)": "high polyreactivity"}
{"sequence": "QVQLVESGGGLVQAGGSLRLSCAACGSIVRDYAMGWYRQAPGKERELVAAIRQSGGRTYYADSVKGRFTISRDNAKNTVYLQMNSLKPDDTAVYYCIARRANYWKKASTQYYYWGQGTQVTVSS", "polyreactivity (PSR sort gate)": "high polyreactivity"}
{"sequence": "QVQLVESGGGLVQAGGSLRLSCAACGSTFFPYAMGWYRQAPGKERELVAAITSGGRTKYADSVKGRFTISRDNAKNTVYLQMNSLKPEDTAVYYCAARGLIKEYGGPYRRFGYWGQGTQVTVSS", "polyreactivity (PSR sort gate)": "high polyreactivity"}
{"sequence": "QVQLVESGGGLVQAGGSLRLSCAACGSTFYAYAMGWYRQAPGKERELVAAIDSGGSTYYADSVKGRFTISRYNAKNTVYLEMNSLKPEDTAVYYCAVRHRYTRAYRGRDYWGQGTQVTVSS", "polyreactivity (PSR sort gate)": "low polyreactivity"}
{"sequence": "QVQLVESGGGLVQAGGSLRLSCAAFPYAMGWYIPAPAKERELVAAISSSGTSTYYADSVKGRFTISRDNAKNTVYLQMNSLKPEDTAVYYCNTALSRLSQHDYWGQGTQVTVSS", "polyreactivity (PSR sort gate)": "low polyreactivity"}
{"sequence": "QVQLVESGGGLVQAGGSLRLSCAAPGSTFGRYAMGWYRQAPGKERELVAAISKSGGSTYYADSVKGRFTISRDNAKNTVYLQMNSLKPEDTAVYYCAATTTRYSYEYWGQGTQVTVSS", "polyreactivity (PSR sort gate)": "low polyreactivity"}
{"sequence": "QVQLVESGGGLVQAGGSLRLSCAAPGSTLSYYAMGWYRQATGKERELVAAISLSVGSTYYADSVKGRFTISRDNAKNTVYLQMNSLKPEDTAVYYCAADDFYSGPFRGDYWGQGTQVTVSS", "polyreactivity (PSR sort gate)": "low polyreactivity"}
{"sequence": "QVQLVESGGGLVQAGGSLRLSCAAPGYIFEFYAMGWYRQAPGKERELVAAISWRGGSTYADSVKGRFTISRDNAKNTVYLQMNSLKPEDTAVYYCNADVEGRYDWTENDYWGQGTQVTVSS", "polyreactivity (PSR sort gate)": "low polyreactivity"}
{"sequence": "QVQLVESGGGLVQAGGSLRLSCAASAFILYRYAMGWYRQAPGKERELVAAISRTGGSTYYADSVKGRFTISRDNAKNTVYLQMNSLKPEDTAVYYCNARSSYGLSYRQYGYWGQGTQVTVSS", "polyreactivity (PSR sort gate)": "high polyreactivity"}
{"sequence": "QVQLVESGGGLVQAGGSLRLSCAASAITFYDYPMGWYRQAPGKERELVAAITWNGGDTYYADSVKGRFTISRDNAKNTDYLQMNSLKPEDTAVYYCNATRHYFGGFHYEYYYWGQGTQVTVSS", "polyreactivity (PSR sort gate)": "low polyreactivity"}
{"sequence": "QVQLVESGGGLVQAGGSLRLSCAASARIFGWNAMGWYRQAPGKERELVAAISWRGGSTYYADSVKGRFTISRDNAKNTVYLQMNSLKPEDTAVYYCNALYTRYVSQWFGYWGQGTQVTVSS", "polyreactivity (PSR sort gate)": "high polyreactivity"}
{"sequence": "QVQLVESGGGLVQAGGSLRLSCAASASIFRSYAMGWYRQAPGKERELVAAISWRGDSTYYADSVKGRFTISRDNAKHTVYLQMNSLKPEDTAVYYCNVQRSLRMDYWGQGTQGTVSS", "polyreactivity (PSR sort gate)": "high polyreactivity"}
{"sequence": "QVQLVESGGGLVQAGGSLRLSCAASASIFYIYGIGWYRQAPGKERELVARISSGDRTNYADSVKGRFTISRDNAKNTVYLHMNSLKAEDTAVYYCNARVSYYLGRYYWGQGTQVTVSS", "polyreactivity (PSR sort gate)": "high polyreactivity"}
{"sequence": "QVQLVESGGGLVQAGGSLRLSCAASASISDSYAMGRYRQAPGKERELVAAITSGDSTYYADSVKGRFTISRDNAKNTLYLQMNSLKPEDTAVYYCAKRVSRGRGYGFTDWSEYDYWGQGTQVTVSS", "polyreactivity (PSR sort gate)": "low polyreactivity"}
{"sequence": "QVQLVESGGGLVQAGGSLRLSCAASASNYERYVMGWNRQAPGKERELVAAISRSGGTTYYADSVKGRFTISRDNAKNTVYLQMNSLKPEDTAVYYCAARVPHDSAGYDYWGQATQVTVSS", "polyreactivity (PSR sort gate)": "high polyreactivity"}
{"sequence": "QVQLVESGGGLVQAGGSLRLSCAASASTFPVNAMGWYRQAPGKERELVAAIRSSTGRTYYADSVKGRFTISRDNAKNTVYLQMNSLKPEDTAVYYCAAYYLGQYEYDYWGQGTQVTVSS", "polyreactivity (PSR sort gate)": "low polyreactivity"}
{"sequence": "QVQLVESGGGLVQAGGSLRLSCAASGAIFGFYAMGWYRQAAGKERELVADITFSVGSTNYADSVKGRFTISRDNAKNTVYLQRNSLKPEDTAVYYCAVANVYYEGYDYWGQGTQVTVSS", "polyreactivity (PSR sort gate)": "low polyreactivity"}
{"sequence": "QVQLVESGGGLVQAGGSLRLSCAASGAIFQPYGMGGYSQAPGKERELVAAISRGGTTYYADSVTGRFTISRANAKNTDYLQMNSLKPEETAVYYCAVKGYRYGTRYDYRGQGTQVTVSS", "polyreactivity (PSR sort gate)": "high polyreactivity"}
{"sequence": "QVQLVESGGGLVQAGGSLRLSCAASGAIFVAYAMGWYRQAPGKDRELVAAITYSAGSTYYADSVKGRFTISRDNAKNTVYLQMNSLKPEDTAVYYCAADALVYSFIGYEYWGQGTQVTLSS", "polyreactivity (PSR sort gate)": "low polyreactivity"}
{"sequence": "QVQLVESGGGLVQAGGSLRLSCAASGAIFYYYCMGWYRQAPGKEREWVAGISSRGGRTYYADSVKGRFTISRDNAKNTVYLQMNSLKPVDTAVYYCAADRYYYAYRYFPSGYWGQGTQVTVSS", "polyreactivity (PSR sort gate)": "low polyreactivity"}
{"sequence": "QVQLVESGGGLVQAGGSLRLSCAASGAILDEYSMVWYRPAPGKAREFVAGIRTIGGSTYYADSVKGRFTISRENAKNTVYLQLNSLIPEDTADNYCAADGRTHEPQGWLGGYDYCGQGTQVTVSS", "polyreactivity (PSR sort gate)": "low polyreactivity"}
{"sequence": "QVQLVESGGGLVQAGGSLRLSCAASGAMGWYRQAPGKERELVAGITSGGSTNYADSVKGRFTISRDNAKNTVYLQMNSLKPEDTAVYDCNAVGGPRWLSVGWPYDYWGQGTQVTVSS", "polyreactivity (PSR sort gate)": "low polyreactivity"}
